Reference: paper PMC4499774

Target: GST-MED4 CsoS2 (pFC005) (Prochlorococcus marinus str. MED4)
Test: pull-down; E. coli co-expressing GST-MED4 CsoS2 (pFC005) with CsoS1 and CsoS1D (pFC119); Glutathione-Sepharose magnetic beads; elution by SDS-PAGE, densitometry and Western blot

Chain of GST-MED4 CsoS2 (pFC005) (Prochlorococcus marinus str. MED4) (Q7V2C8 whole entry): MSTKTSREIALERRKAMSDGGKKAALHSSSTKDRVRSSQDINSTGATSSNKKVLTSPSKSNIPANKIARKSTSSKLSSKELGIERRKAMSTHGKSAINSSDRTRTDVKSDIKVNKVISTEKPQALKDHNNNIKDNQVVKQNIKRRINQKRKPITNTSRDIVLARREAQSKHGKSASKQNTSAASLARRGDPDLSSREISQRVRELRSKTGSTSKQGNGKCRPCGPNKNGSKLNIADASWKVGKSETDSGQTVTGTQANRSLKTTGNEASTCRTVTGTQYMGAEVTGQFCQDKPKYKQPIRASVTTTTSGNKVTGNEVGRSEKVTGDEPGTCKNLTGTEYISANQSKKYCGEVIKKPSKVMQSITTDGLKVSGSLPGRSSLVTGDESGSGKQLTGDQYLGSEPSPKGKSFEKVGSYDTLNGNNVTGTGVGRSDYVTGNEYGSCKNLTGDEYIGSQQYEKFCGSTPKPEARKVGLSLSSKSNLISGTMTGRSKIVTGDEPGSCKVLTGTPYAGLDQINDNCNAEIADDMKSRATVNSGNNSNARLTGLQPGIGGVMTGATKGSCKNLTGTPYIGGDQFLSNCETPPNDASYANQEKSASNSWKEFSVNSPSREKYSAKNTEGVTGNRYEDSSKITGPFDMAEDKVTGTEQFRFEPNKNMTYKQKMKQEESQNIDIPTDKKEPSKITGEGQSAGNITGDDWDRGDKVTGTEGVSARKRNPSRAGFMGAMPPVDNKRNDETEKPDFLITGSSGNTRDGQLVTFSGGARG

B1: MED4 CsoS1D co-expressed with GST-MED4 CsoS2 (pFC119) (natural protein)
chain: MEPTSSLNRGDRKKGSSLVTGSEVQSQSNGASCFITTDSEKSLVSRQASQVEQIELRTYVFLDSLQPQLAAYMGTVSRGFLPIPGDSCLWMEVSPGMAVHRVTDIALKASNVRLGQMIVERAFGSLALYHKDQSTVLHSGDVVLDAIGSEVRKRTKPSTSWTEVICAITPDHAVLINRQNRSGSMIQSGMSMFILETEPAGYVLKAANEAEKSANITIIDVKAVGAFGRLTLAGKEGDVEEAAAAAIRAIDQISNY
molar ratio of CsoS1D to GST-CsoS2 in the elution fraction (densitometry): 5 molar ratio
